Measured values reported in paper PMC11995187, “Specificity landscapes of 40 R2R3‐MYBs reveal how paralogs target different cis‐elements by homodimeric binding”.

T1: AtMYB2 (Arabidopsis thaliana, UniProt Q39028 1-273)
T1 sequence: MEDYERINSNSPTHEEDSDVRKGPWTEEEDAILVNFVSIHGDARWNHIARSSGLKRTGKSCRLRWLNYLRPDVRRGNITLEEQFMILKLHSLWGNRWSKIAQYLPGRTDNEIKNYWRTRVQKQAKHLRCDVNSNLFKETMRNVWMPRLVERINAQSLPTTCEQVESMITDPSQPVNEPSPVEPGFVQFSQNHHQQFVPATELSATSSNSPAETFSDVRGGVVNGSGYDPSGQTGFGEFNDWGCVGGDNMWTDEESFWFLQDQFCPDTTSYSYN

T2: AtMYB2 homodimer (Arabidopsis thaliana, UniProt Q39028 1-273)
T2 sequence: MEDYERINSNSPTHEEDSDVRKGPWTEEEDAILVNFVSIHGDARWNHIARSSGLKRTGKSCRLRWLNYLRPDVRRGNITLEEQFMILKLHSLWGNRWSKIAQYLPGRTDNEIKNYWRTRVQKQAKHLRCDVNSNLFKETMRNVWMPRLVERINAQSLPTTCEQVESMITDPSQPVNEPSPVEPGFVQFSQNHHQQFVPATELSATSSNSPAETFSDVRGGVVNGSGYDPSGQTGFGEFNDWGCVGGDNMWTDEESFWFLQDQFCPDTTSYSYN


Columns and labels:
[1] = target: T1, AtMYB2; assay: EMSA; 24-48 ng/uL protein; single-molecule shift only, no dimer band; EMSA: 10 mM Tris pH 7.5, 50 mM KCl, 10 ng DNA in 20 uL, 25 C, 1 h; 6% native PAGE, 0.5x TBE, 4 C; conditions: protein: recombinant; tags: His; label: none (gel stain); (annealed oligonucleotides)
[2] = target: T2, AtMYB2 homodimer; assay: EMSA; 18-48 ng/uL protein; monomer band also seen, dimer band at 36 and 48 ng/uL; EMSA: 10 mM Tris pH 7.5, 50 mM KCl, 10 ng DNA in 20 uL, 25 C, 1 h; 6% native PAGE, 0.5x TBE, 4 C; conditions: protein: recombinant; tags: His; chain copies: 2; label: none (gel stain); (annealed oligonucleotides)

Binder	binding result [1]	binding result [2]
Ma (dsDNA) DNA 1: GATCCAATTGACCACTACGTTAGGTAATGGACATCAATGCCA DNA 2: TGGCATTGATGTCCATTACCTAACGTAGTGGTCAATTGGATC	binds	–
ER8 (dsDNA) DNA 1: GATCCAATTGGTTAGGTCGATCTCAACCTAACATCAATGCCA DNA 2: TGGCATTGATGTTAGGTTGAGATCGACCTAACCAATTGGATC	–	binds
ER1a (dsDNA) DNA 1: GATCCAATTGGTTTGGTCACCGATTTAACCTCATCAATGCCA DNA 2: TGGCATTGATGAGGTTAAATCGGTGACCAAACCAATTGGATC	–	binds
